Article PMC4773420 (Nature Communications, 2016)

Key:
6His-PABPC1(1–190) = target: T1, 6His-PABPC1(1–190) (human, UniProt P11940 1-190); experiment: AUC; analytical ultracentrifugation of BTG2(APRO) (GST removed) and 6His-PABPC1(1–190), both purified to homogeneity; no RNA (Supplementary Fig. 2); conditions: both partners purified
T1 construct: PABPC1, human, RRM domains 1 and 2, amino acids 1-190; also called 6His-tagged PABPC1 RRM domains 1 and 2; first two RRMs of PABPC1; source: E. coli BL21-CodonPlus; co-expressed, in lysate (pull-down); purified (HisTrap FF crude, Superdex 75)
T1 sequence (P11940 1-190): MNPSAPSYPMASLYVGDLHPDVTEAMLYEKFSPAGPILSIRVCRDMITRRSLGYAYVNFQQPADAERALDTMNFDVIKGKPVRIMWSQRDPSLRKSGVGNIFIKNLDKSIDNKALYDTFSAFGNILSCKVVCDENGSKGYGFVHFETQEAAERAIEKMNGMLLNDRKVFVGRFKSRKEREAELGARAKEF

6His-PABPC1(1-190) = 6His-PABPC1(1-190) (human, UniProt P11940 1-190); experiment: EMSA; 100 nM RNA; complete shift at 7 pmol protein per 1 pmol RNA; EMSA: 100 nM 5'-fluorescein RNA, native PAGE; EMSA buffer not in the material (deadenylation assays: 20 mM HEPES-KOH pH 8.0, 100 mM KCl, 0.5 mM DTT, 0.1% Igepal)
Chain of 6His-PABPC1(1-190) (P11940 1-190): as above

6His-PABPC1(FL) = 6His-PABPC1(FL) (human, UniProt P11940 1-636); experiment: EMSA; 100 nM RNA; complete shift at 7 pmol protein per 1 pmol RNA; multiple PABPC1 molecules bound; EMSA: 100 nM 5'-fluorescein RNA, native PAGE; EMSA buffer not in the material (deadenylation assays: 20 mM HEPES-KOH pH 8.0, 100 mM KCl, 0.5 mM DTT, 0.1% Igepal)
Chain of 6His-PABPC1(FL) (P11940 whole entry): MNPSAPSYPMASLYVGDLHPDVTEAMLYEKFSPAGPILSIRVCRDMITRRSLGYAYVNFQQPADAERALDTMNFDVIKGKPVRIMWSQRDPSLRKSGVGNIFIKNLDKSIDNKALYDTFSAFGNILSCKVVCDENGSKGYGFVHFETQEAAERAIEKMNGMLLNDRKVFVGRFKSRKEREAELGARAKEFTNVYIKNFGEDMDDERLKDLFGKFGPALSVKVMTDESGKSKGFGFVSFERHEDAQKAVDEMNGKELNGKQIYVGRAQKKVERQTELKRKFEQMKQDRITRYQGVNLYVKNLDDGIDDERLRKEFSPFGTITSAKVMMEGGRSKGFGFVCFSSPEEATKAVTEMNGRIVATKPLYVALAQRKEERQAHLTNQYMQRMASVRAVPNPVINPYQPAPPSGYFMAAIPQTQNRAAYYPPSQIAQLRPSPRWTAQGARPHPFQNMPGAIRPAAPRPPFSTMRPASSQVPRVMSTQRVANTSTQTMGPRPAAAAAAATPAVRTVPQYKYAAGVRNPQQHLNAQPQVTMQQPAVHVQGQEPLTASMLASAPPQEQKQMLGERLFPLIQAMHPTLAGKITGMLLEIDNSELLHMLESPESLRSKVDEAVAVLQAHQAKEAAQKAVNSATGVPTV

| Binder | Kd (6His-PABPC1(1–190)) | stoichiometry N (6His-PABPC1(1–190)) | binding result (6His-PABPC1(1-190)) | binding result (6His-PABPC1(FL)) |
| --- | --- | --- | --- | --- |
| BTG2(APRO) (domain or fragment, human, UniProt P78543 1-126, looked up, BTG2, human, APRO domain; also called BTG2 APRO domain, GST removed; source: E. coli BL21-CodonPlus, purified (GSTrap FF, thrombin cleavage, Superdex 75)) MSHGKGTDMLPEIAAAVGFLSSLLRTRGCVSEQRLKVFSGALQEALTEHYKHHWFPEKPSKGSGYRCIRINHKMDPIISRVASQIGLSQPQLHQLLPSELTLWVDPYEVSYRIGEDGSICVLYEEA | ~5 µM | 1 |  |  |
| 5'Fluo-poly(A)75 (ssRNA) RNA: AAAAAAAAAAAAAAAAAAAAAAAAAAAAAAAAAAAAAAAAAAAAAAAAAAAAAAAAAAAAAAAAAAAAAAAAAAA |  |  | binds | binds |
